In patent US6667173B2, “Nucleic acids encoding platelet derived growth factor-alpha receptors” (The Schepens Eye Research Institute, priority 2000, dated 2003):

Legend:
βPDGFR = biological target: T1, βPDGFR (Homo sapiens, UniProt P09619); assay: Tyrosine phosphorylation of the βPDGFR in TGFβ- or PDGF-treated F cells; format: cell-based; details: Fβ cells; 1 ng/ml TGFβ1
T1 construct: expressed in transfected cells; host or cells: F cells (mouse embryo fibroblasts lacking both PDGFRs), giving Fβ

FCX^2, Fα and Fβ cells = assay: Collagen gel contraction assay of cells with no PDGFRs, αPDGFR or βPDGFR; format: cell-based, mouse; details: 1 ng/ml TGFβ1; 24, 48, 72 hours
Procedure: The contraction assay was based on a previously described reference, Skuta, G. et al. (1999) J. Biol. Chem. 274:30163, with the following modifications. Fα cells were suspended in 1.5 mg/ml of neutralized collagen I (Cohesion vitrogen 100, Palo Alto, Calif.) at a density of 10^6 cells/ml, and were transferred into the 24-well plate (Falcon, Franklyn Lakes, N.J.) that had been preincubated with phosphate-buffer saline (PBS) with 5 mg/ml of bovine serum albumin (BSA) overnight. The gel was solidified by incubating at 37° C. for 90 minutes, and then the well was flooded with DMEM+5 mg/ml of BSA supplemented with an amount of vitreous such that the final concentration of vitreous in the culture medium was 1, 5 or 20%. […] The media was replaced every 24 hours and the gel diameter was measured after 48 hours. The extent of contraction was calculated by subtracting the diameter of the well at 48 hours from the initial diameter (15 mm). […]
The experiments described in Example 9 (FIG. 7B) were repeated with cells that express the βPDGFR (Fβ) instead of the αPDGFR, or no PDGFRs (FCX^2). Contraction was scored at the 48 hours time point. […]
To more directly test whether TGFβ could moderate contraction of fibroblasts via the αPDGFR, the response of the three cell lines to purified TGFβ was examined. […] The gel diameter was measured after 24, 48, or 72 hours, and the media was replaced every day.

αPDGFR = biological target: T2, αPDGFR (Homo sapiens, UniProt P16234); assay: Tyrosine phosphorylation of the αPDGFR in TGFβ- or PDGF-treated F cells; format: cell-based; details: Fα cells; 50 ng/ml PDGF-BB 5 minutes or 1 ng/ml TGFβ1 5 minutes to 8 hours
T2 construct: expressed in transfected cells; host or cells: F cells (SV-40 immortalized mouse embryo fibroblasts lacking both PDGFRs), giving Fα
Procedure: To show the effect of TGFβ on αPDGFR, the tyrosine phosphorylation state of the αPDGFR was assayed in TGFβ-treated cells. The F cells with or without PDGFR were grown to 80% confluent and then starved with DMEM containing 1% FBS for 20 hours. Cells were exposed at 37° C. for 5 minutes to either 50 ng/ml of PDGF-BB; with 1 ng/ml of TGFβ1 for 5 minutes, 1 hour, 2 hours, 4 hours, 6 hours or 8 hours; or were left unstimulated. After treatment the cells were washed twice with H/S (20 mM Hepes, pH 7.4, 150 mM NaCl) and then lysed in EB (10 mM Tris-HCl, pH 7.4, 5 mM EDTA, 50 mM NaCl, 50 mM NaF, 1% Triton-X 100, 0.1% BSA, 20 μg/ml aprotinin, 2 mM Na3VO4, 1 mM phenylmethylsulfonyl fluoride; PMSF). Lysates were centrifuged for 15 minutes at 13,000×g, the pellet was discarded and the soluble fraction was used as the total cell lysate. The protein concentration was measured using protein assay kit (Pierce, Rockfield, Ill.) following the manufacture's instructions.
Receptors were immunoprecipitated from the soluble fraction with the 27P antibody (described above). Immune complex was bound to formalin-fixed membranes of Staphylococcus aureus, spun through an EB sucrose gradient, and washed twice with EB, then with PAN (10 mM Pipes, pH 7.0, 100 mM NaCl, 1% aprotinin)+0.5% Nonidet P-40 (NP-40), and finally with PAN. The samples were resuspended in PAN before using for kinase assay or western blotting. […]

GST-PLCγ = assay: In vitro kinase assay of immunoprecipitated mutant αPDGFRs with exogenous substrate; format: biochemical; details: 292 immunoprecipitates, [32P]-γ ATP, 30° C., 5 min
Procedure: Mutant αPDGFRs were selectively immunoprecipitated with the 292 antibody, and samples representing 2×10^5 cells from 292 antibodies were subjected to an in vitro kinase assay. Immunoprecipitates were preincubated with 2 μg of GST protein for 10 min at 0° C., then 2 μg of Glutathione S-transferase fusion phospholipase C-gamma (GST-PLCγ, an exogenous substrate, 10 μCi of γ-[^32P] ATP (DuPont NEN Research Products, Boston, Mass.), and universal kinase buffer (UKB; 20 mM Pipes, pH 7.0, 10 mM MnCl2, 20 μg/ml aprotinin) were added. The samples were incubated at 30° C. for 5 min. The proteins were separated by 7.5% sodium dodecyl sulfate-polyacrylamide gel electrophoresis (SDS-PAGE), the gel was dried, and the radiolabeled protein was detected by autoradiography.

NIH 3T3 cells = assay: [3H]-thymidine incorporation (entry into S phase) in NIH 3T3 cells expressing mutant receptors; format: cell-based, mouse; details: 10% FBS, 22 hours
Procedure: NIH 3T3 cells expressing either empty vector (EMP) or one of the αPDGFR mutants were trypsinized, resuspended in DMEM with 10% FBS, and plated at a density of 5×10^5 cells/well in 24-well tissue culture plates and cultured overnight. The cells were rinsed twice with phosphate buffered saline (PBS), and serum starved by incubation in 0.5 ml of DMEM with 0.1% FBS and 0.4 mg/ml of bovine serum albumin (BSA; Sigma) for 48 hours. The cells were then exposed to 50 ng/ml of PDGF-AA, 10% Fetal bovine serum (FBS) (v/v), or buffer for 22 hours. The cells were then pulsed for 4 hours in DMEM with 10% FBS containing 0.8 μCi/ml of [^3H]-thymidine (DuPont NEN Research Products). Finally, the cells were washed twice with PBS, and once with 5% trichloro acetic acid, and lysed in 250 μl of 0.25 N NaOH. The lysates were transferred into scintillation tubes containing 50 μl of 6 N HCl, and then 3 ml of scintillation fluid (ICN) was added. The incorporated radioactivity of [^3H]-thymidine uptake was quantitated in a scintillation counter (Packard, Meriden Conn.). The data were expressed as fold induction, which was calculated by dividing stimulated samples by the buffer control. Each condition was assayed triplicate, and the mean±standard deviation (SD) was obtained.

human αPDGFR = assay: Tyrosine phosphorylation of the introduced mutant αPDGFR (292 immunoprecipitation from NIH 3T3 cells); format: cell-based, mouse; details: 292 antibody IP, RIPA lysis; 50 ng/ml PDGF-AA, 5 minutes
Excerpt: To characterize the kinase activity of the point mutants, these were immunoprecipitated using the 292 monoclonal antibody, which selectively recognizes an extracellular epitope of the introduced receptor and recognizes all of the mutants used in this study. While PDGF-stimulation is expected to dimerize mutant and wild type receptors, lysing cells in RIPA buffer breaks receptor dimers. Kelly, J. D. et al. (1991) J. Biol. Chem. 266:8987. Consequently, 292 immunoprecipitates are not expected to contain co-immunoprecipitating WT receptor. NIH 3T3 cells expressing the empty vector or receptor mutants were left resting, or stimulated with 50 ng/ml of PDGF-AA for 5 minutes, the cells were lysed in RIPA buffer and the resulting samples were subjected to anti-phosphotyrosine and anti-αPDGFR western blot analysis. In this series of experiments, we included the previously described Fα cell line, which is an NIH 3T3-like cell line that express the introduced human αPDGFR. Andrews, A. et al (1999) Invest. Ophthalmol. Vis. Sci. 40:2683. This cell line was included as a positive control, since the WT receptor in NIH 3T3 cells is mouse, and not recognized by the 292 antibody. As expected, the αPDGFR was immunoprecipitated from the Fα cells, but not the NIH 3T3 cells expressing the empty vector, and PDGF stimulation increased the phosphotyrosine content of the receptor (FIG. 3A). […]

Erk = assay: PDGF-dependent activation of Erk in NIH 3T3 cells expressing mutant receptors (anti-phospho-Erk western blot); format: cell-based, mouse; details: 50 ng/ml PDGF-AA, 5 minutes
Procedure: Cells were stimulated as described in Example 2 and 20 μg of total cell lysate was subjected to western blotting analysis using anti-phospho-Erk or anti-Ras GTP-activating protein antibody as an internal control for the amount of protein. The phospho-extracellular signal related kinase (Erk) rabbit polyclonal antibody was purchased from New England Biolabs (Beverly, Mass.) and used at a dilution of 1:1000.

human αPDGFR, sequence (P16234 24-589 limits assumed): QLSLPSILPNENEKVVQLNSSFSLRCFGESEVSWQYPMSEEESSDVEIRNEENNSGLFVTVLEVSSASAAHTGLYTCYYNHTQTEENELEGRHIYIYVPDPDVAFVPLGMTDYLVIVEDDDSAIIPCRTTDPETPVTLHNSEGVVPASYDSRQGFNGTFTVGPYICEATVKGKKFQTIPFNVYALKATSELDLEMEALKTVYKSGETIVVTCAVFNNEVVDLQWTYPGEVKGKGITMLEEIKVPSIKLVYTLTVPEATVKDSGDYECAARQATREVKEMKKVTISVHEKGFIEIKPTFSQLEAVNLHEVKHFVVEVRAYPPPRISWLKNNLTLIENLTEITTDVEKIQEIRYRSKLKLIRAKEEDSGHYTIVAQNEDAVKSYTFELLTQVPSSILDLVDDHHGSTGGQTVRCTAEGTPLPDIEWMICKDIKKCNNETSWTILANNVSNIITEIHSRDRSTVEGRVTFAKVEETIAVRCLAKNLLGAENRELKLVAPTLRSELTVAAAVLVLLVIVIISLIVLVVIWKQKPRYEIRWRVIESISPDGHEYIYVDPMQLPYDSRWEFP
T1 sequence (P09619 33-1106): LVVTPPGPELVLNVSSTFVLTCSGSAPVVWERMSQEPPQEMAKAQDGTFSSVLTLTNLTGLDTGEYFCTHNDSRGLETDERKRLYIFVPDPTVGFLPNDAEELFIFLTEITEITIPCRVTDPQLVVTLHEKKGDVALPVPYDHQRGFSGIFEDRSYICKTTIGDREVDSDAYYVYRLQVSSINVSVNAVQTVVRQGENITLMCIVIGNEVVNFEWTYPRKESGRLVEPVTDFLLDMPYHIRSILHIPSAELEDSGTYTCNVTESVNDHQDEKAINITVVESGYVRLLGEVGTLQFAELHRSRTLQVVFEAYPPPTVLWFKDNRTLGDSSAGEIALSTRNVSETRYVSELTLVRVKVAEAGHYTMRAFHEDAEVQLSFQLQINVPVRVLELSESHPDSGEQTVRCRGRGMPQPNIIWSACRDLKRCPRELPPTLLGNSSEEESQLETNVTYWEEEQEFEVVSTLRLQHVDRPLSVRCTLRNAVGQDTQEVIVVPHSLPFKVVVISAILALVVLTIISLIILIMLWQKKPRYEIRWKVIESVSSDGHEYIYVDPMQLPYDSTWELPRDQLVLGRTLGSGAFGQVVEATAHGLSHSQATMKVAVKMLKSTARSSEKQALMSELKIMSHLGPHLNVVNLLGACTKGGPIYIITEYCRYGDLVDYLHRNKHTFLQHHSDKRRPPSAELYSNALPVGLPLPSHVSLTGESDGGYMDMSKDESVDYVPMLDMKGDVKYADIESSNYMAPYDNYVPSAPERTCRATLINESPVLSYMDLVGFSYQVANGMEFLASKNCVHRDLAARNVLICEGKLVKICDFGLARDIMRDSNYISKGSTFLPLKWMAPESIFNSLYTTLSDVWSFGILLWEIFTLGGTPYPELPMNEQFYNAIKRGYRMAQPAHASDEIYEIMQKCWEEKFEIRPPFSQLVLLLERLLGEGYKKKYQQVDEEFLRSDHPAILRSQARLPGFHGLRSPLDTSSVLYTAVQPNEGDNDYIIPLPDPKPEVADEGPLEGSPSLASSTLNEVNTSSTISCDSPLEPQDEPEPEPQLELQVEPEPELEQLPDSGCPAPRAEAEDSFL
T2 sequence (P16234 24-1089): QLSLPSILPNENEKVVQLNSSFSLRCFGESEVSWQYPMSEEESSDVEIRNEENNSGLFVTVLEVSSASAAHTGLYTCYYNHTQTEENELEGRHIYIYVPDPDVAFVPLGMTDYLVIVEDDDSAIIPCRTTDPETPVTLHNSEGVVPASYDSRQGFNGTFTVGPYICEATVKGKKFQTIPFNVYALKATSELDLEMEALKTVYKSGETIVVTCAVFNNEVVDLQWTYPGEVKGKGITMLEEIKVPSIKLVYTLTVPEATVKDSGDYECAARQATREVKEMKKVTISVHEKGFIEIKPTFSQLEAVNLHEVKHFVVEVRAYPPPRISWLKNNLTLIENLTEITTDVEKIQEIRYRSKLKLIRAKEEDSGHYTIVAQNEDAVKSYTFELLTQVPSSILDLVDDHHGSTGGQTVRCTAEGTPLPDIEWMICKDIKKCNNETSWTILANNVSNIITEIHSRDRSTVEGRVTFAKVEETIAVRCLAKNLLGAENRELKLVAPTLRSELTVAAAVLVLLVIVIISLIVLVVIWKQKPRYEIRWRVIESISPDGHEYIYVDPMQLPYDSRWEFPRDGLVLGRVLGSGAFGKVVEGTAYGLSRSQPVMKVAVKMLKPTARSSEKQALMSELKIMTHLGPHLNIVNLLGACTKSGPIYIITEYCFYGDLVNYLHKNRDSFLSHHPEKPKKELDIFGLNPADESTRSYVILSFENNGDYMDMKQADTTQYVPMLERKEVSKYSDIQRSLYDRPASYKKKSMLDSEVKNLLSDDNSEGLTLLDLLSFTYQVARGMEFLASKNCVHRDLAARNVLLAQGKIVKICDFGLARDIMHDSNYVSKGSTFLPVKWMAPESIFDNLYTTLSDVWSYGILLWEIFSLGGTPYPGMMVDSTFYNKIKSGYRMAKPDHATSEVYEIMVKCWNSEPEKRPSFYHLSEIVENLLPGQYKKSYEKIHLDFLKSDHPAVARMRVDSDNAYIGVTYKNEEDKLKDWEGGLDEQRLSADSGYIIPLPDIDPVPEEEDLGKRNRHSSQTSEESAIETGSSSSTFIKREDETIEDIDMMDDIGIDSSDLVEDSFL

tyrosine phosphorylation of the αPDGFR (αPDGFR) | Substance | tyrosine phosphorylation of the βPDGFR (βPDGFR) | TGFβ-induced contraction (FCX^2, Fα and Fβ cells) | kinase activity towards exogenous substrate GST-PLCγ (GST-PLCγ) | [3H]-thymidine incorporation in response to serum (NIH 3T3 cells) | basal or PDGF-stimulated tyrosine phosphorylation of the mutant receptor (human αPDGFR) | PDGF-dependent activation of Erk (Erk)
increased phosphorylation of the αPDGFR | TGFβ: recombinant human TGFβ1 purchased from R & D systems | very modest or undetectable tyrosine phosphorylation | induced contraction of the Fα cells to a much greater extent than either the Fβ cells or the cells that do not express any PDGFR |  |  |  | 
 | V859M: human αPDGFR point mutant, valine at position 859 changed to methionine; SEQ ID NO: 10 |  |  | more active than the WT receptor | somewhat elevated response to serum |  | 
 | D818N: human αPDGFR point mutant, aspartic acid at position 818 changed to asparagine; SEQ ID NO: 8 |  |  | not phosphorylated |  | no detectable | failed to fully activated Erk
